Test results as given in PMC4931238.

Columns and labels:
[1] = biological target: BG505 SOSIP.664 gp140 trimer (HIV-1 clade A BG505); experiment: SEC; Superdex 200 10/300 GL column, after GNL purification
[2] = biological target: gp120Sht-LS (clade-A BG505 gp120 fused to lumazine synthase) (HIV-1 clade A BG505 | Aquifex aeolicus); experiment: native gel or EMSA

Substance | stoichiometry N [1] | stoichiometry N [2]
BG505 SOSIP.664 gp140 trimer (complex) | 3 | –
gp120Sht-LS (clade-A BG505 gp120 fused to lumazine synthase) | – | 5
